Measured values taken from patent US20140243502.

Assays:
[1] = target: recombinant tick anticoagulant peptide (rTAP) (UniProt P17726)
[2] = target: non-targeted mut-scFv-TAP (UniProt P17726)
[3] = tested on: scFv anti-LIBS-TAP fusion protein

Q: Which results are given for factor Xa (fXa)?
A: cleavage of chromogenic substrate (spectrozyme FXa #222) by factor Xa, OD at 405 nm [1]: inhibition of factor Xa activity by rTAP, scFv anti-LIBS-TAP, and non-targeted mut-scFv-TAP, but not by scFv anti-LIBS; cleavage of chromogenic substrate (spectrozyme FXa #222) by factor Xa, OD at 405 nm [2]: inhibition of factor Xa activity by rTAP, scFv anti-LIBS-TAP, and non-targeted mut-scFv-TAP, but not by scFv anti-LIBS; cleavage of chromogenic substrate (spectrozyme FXa #222) by factor Xa, OD at 405 nm [3]: inhibition of factor Xa activity by rTAP, scFv anti-LIBS-TAP, and non-targeted mut-scFv-TAP, but not by scFv anti-LIBS
